Experimental data as given in paper doi:10.1101/2022.06.30.497818.

Target: GST-tagged CDK2 (human cyclin-dependent kinase 2, 1-298) (human) (UniProt P24941)
Assay: SPR

“Bovine cyclin A (171-432 with a C-terminal 6His tag) (from UniProt P30274 171-430) (domain or fragment)” showed a Kd of 2.8 nM.
